First the molecules themselves.
B1: H2-Kb / F4 (parent complex)
chain 1: QQQVRQSPQSLTVWEGETAILNCSYEDSTFNYFPWYQQFPGEGPALLISIRSVSDKKEDGRFTIFFNKREKKLSLHITDSQPGDSATYFCAAMSNYNVLYFGSGTKLTVEP
chain 2: ETAVFQTPNYHVTQVGNEVSFNCKQTLGHDTMYWYKQDSKKLLKIMFSYNNKQLIVNETVPRRFSPQSSDKAHLNLRIKSVEPEDSAVYLCASSARQNSPLYFAAGTRLTVT
chain 3: not shown
chain 4: IQKTPQIQVYSRHPPENGKPNILNCYVTQFHPPHIEIQMLKNGKKIPKVEMSDMSFSKDWSFYILAHTEFTPTETDTYACRVKHDSMAEPKTVYWDRDM
chain 5: SIINFEKL
B2: H2-Kb / Ed28 (parent complex)
chain 1: AQSVTQPDARVTVSEGASLQLRCKYSYFGTPYLFWYVQYPRQGLQLLLKYYPGDPVVQGVNGFEAEFSKSNSSFHLRKASVHWSDWAVYFCAVSPGSGGKLTLGAGTRLQVNL
chain 2: DSGVVQSPRHIIKEKGGRSVLTCIPISGHSNVVWYQQTLGKELKFLIQHYEKVERDKGFLPSRFSVQQFDDYHSEMNMSALELEDSAMYFCASSPRASDYTFGSGTRLLVI
chain 3: not shown
chain 4: B1 chain 4
chain 5: SIINFEKL
Further: test concentration or dose not given here.

Variants of B1 are the subject of the first assay. Description: % of reporter cells activated (NFAT-GFP), raw.
In the case of chain 5 K7H, the ratio to parent worked out at 1.35.

For chain 5 K7R, the ratio to parent came to 1.23.

For the variant chain 5 K7E, the ratio to parent came to 0.105.

As for chain 5 K7N, the ratio to parent was determined as 0.254.

For the variant chain 5 K7P, the ratio to parent was 0.0549.

Regarding chain 5 K7S, the ratio to parent was determined as 0.261.

Take chain 5 K7V: the ratio to parent was found to be 0.927.

As to chain 5 K7W, the ratio to parent is 0.517.

In the case of chain 5 K7M, the ratio to parent was 0.651.

chain 5 K7L: the ratio to parent was found to be 0.85.

For chain 5 K7D, the ratio to parent came to 0.101.

As for chain 5 K7G, the ratio to parent stood at 0.234.

With chain 5 K7Q, the ratio to parent amounted to 0.417.

For chain 5 K7C, the ratio to parent is 0.377.

Turning to chain 5 K7T, the ratio to parent was 0.628.

As to chain 5 K7I, the ratio to parent is 0.771.

As to chain 5 K7Y, the ratio to parent was 1.03.

Take chain 5 K7A: the ratio to parent is 0.222.

Turning to chain 5 K7F, the ratio to parent is 0.726.

Take chain 5 L8F: the ratio to parent stood at 0.564.

chain 5 L8Y: the ratio to parent is 0.898.

As for chain 5 L8W, the ratio to parent was 0.491.

Regarding chain 5 L8C, the ratio to parent was found to be 0.783.

Consider chain 5 L8D, for which the ratio to parent came out at 0.312.

On to chain 5 L8K, for which the ratio to parent stood at 0.352.

For chain 5 L8E, the ratio to parent was 0.355.

chain 5 L8S: the ratio to parent came out at 0.515.

Consider chain 5 L8P, for which the ratio to parent amounted to 0.48.

For chain 5 L8N, the ratio to parent amounted to 0.47.

In the case of chain 5 L8Q, the ratio to parent amounted to 0.759.

As for chain 5 L8V, the ratio to parent is 0.457.

As to chain 5 L8A, the ratio to parent was found to be 0.395.

For the variant chain 5 L8M, the ratio to parent came out at 0.723.

Regarding chain 5 L8I, the ratio to parent was 0.903.

chain 5 L8R: the ratio to parent was 0.276.

For chain 5 L8G, the ratio to parent stood at 0.564.

As for chain 5 F5Y, the ratio to parent worked out at 0.526.

As for chain 5 F5R, the ratio to parent worked out at 0.285.

chain 5 F5A: the ratio to parent came out at 0.967.

Regarding chain 5 F5M, the ratio to parent came out at 1.29.

With chain 5 F5E, the ratio to parent amounted to 0.0661.

chain 5 F5N: the ratio to parent turned out to be 0.225.

As to chain 5 F5H, the ratio to parent came out at 1.01.

As to chain 5 F5T, the ratio to parent was 1.19.

Regarding chain 5 F5S, the ratio to parent was found to be 0.767.

Take chain 5 F5K: the ratio to parent came out at 0.109.

Turning to chain 5 F5W, the ratio to parent came out at 0.083.

In the case of chain 5 F5Q, the ratio to parent worked out at 0.517.

Take chain 5 F5V: the ratio to parent was found to be 1.38.

With chain 5 F5I, the ratio to parent came to 1.36.

Consider chain 5 F5L, for which the ratio to parent came to 0.554.

Consider chain 5 S1L, for which the ratio to parent came to 0.0263.

With chain 5 S1F, the ratio to parent amounted to 0.0348.

On to chain 5 S1V, for which the ratio to parent stood at 0.0638.

On to chain 5 S1N, for which the ratio to parent is 0.0308.

As to chain 5 S1G, the ratio to parent came out at 0.188.

Regarding chain 5 S1M, the ratio to parent came out at 0.0268.

Consider chain 5 S1A, for which the ratio to parent was 0.0272.

For the variant chain 5 S1D, the ratio to parent stood at 0.0189.

For chain 5 S1W, the ratio to parent turned out to be 0.0183.

Regarding chain 5 S1Y, the ratio to parent was 0.0768.

Regarding chain 5 S1C, the ratio to parent stood at 0.0254.

chain 5 S1H: the ratio to parent stood at 0.0509.

Turning to chain 5 S1K, the ratio to parent was determined as 0.0638.

Regarding chain 5 S1P, the ratio to parent is 0.0438.

With chain 5 S1I, the ratio to parent came out at 0.0174.

Turning to chain 5 S1E, the ratio to parent stood at 0.029.

With chain 5 S1T, the ratio to parent is 0.0232.

In the case of chain 5 S1Q, the ratio to parent turned out to be 0.0344.

With chain 5 I2L, the ratio to parent was determined as 1.25.

As for chain 5 I2R, the ratio to parent was found to be 0.393.

With chain 5 I2P, the ratio to parent was 0.16.

In the case of chain 5 I2S, the ratio to parent came to 1.05.

In the case of chain 5 I2K, the ratio to parent amounted to 0.0728.

For chain 5 I2H, the ratio to parent was found to be 0.0964.

For the variant chain 5 I2E, the ratio to parent came out at 0.807.

Turning to chain 5 I2Q, the ratio to parent stood at 0.181.

In the case of chain 5 I2D, the ratio to parent amounted to 0.406.

As to chain 5 I2C, the ratio to parent was 2.17.

For the variant chain 5 I2T, the ratio to parent was found to be 0.773.

In the case of chain 5 I2G, the ratio to parent came out at 1.45.

Take chain 5 I2W: the ratio to parent stood at 0.641.

With chain 5 I2Y, the ratio to parent is 0.108.

For chain 5 I2F, the ratio to parent was 0.955.

In the case of chain 5 E6L, the ratio to parent was determined as 0.0121.

As to chain 5 E6C, the ratio to parent turned out to be 0.537.

For chain 5 E6Q, the ratio to parent was found to be 0.0246.

On to chain 5 E6T, for which the ratio to parent came to 0.0219.

As for chain 5 E6F, the ratio to parent was 0.033.

As for chain 5 E6A, the ratio to parent is 0.05.

Take chain 5 E6V: the ratio to parent is 0.0232.

On to chain 5 E6P, for which the ratio to parent came out at 0.0487.

chain 5 E6N: the ratio to parent came out at 0.0563.

As to chain 5 E6D, the ratio to parent was 0.987.

Consider chain 5 E6G, for which the ratio to parent is 0.0237.

As to chain 5 E6Y, the ratio to parent came to 0.0161.

Turning to chain 5 E6H, the ratio to parent was found to be 0.0263.

Regarding chain 5 E6K, the ratio to parent was 0.118.

As to chain 5 E6R, the ratio to parent was 0.0897.

On to chain 5 E6I, for which the ratio to parent was 0.00942.

On to chain 5 E6W, for which the ratio to parent turned out to be 0.113.

As to chain 5 E6M, the ratio to parent was determined as 0.0214.

Regarding chain 5 E6S, the ratio to parent is 0.0357.

As for chain 5 N4F, the ratio to parent turned out to be 0.0339.

chain 5 N4D: the ratio to parent was determined as 0.0277.

Turning to chain 5 N4H, the ratio to parent was 0.0344.

Turning to chain 5 N4I, the ratio to parent amounted to 0.0205.

As to chain 5 N4G, the ratio to parent was found to be 0.225.

For the variant chain 5 N4C, the ratio to parent was 0.0522.

Regarding chain 5 N4L, the ratio to parent came out at 0.0594.

As to chain 5 N4Y, the ratio to parent came to 0.0299.

Regarding chain 5 N4R, the ratio to parent was determined as 0.0277.

For the variant chain 5 N4T, the ratio to parent was 0.0402.

Turning to chain 5 N4K, the ratio to parent amounted to 0.0286.

With chain 5 N4V, the ratio to parent amounted to 0.0362.

Regarding chain 5 N4A, the ratio to parent came out at 0.0308.

Consider chain 5 N4M, for which the ratio to parent is 0.021.

With chain 5 N4P, the ratio to parent stood at 0.0246.

As for chain 5 N4S, the ratio to parent was found to be 0.0317.

As to chain 5 N4Q, the ratio to parent was 0.0116.

For chain 5 I3Q, the ratio to parent was determined as 0.0638.

For chain 5 I3V, the ratio to parent amounted to 1.74.

Regarding chain 5 I3C, the ratio to parent is 0.558.

On to chain 5 I3R, for which the ratio to parent is 0.0634.

As to chain 5 I3L, the ratio to parent was found to be 2.05.

As for chain 5 I3E, the ratio to parent turned out to be 0.0777.

As to chain 5 I3F, the ratio to parent is 1.

Regarding chain 5 I3K, the ratio to parent is 0.262.

With chain 5 I3D, the ratio to parent was 0.0344.

For the variant chain 5 I3S, the ratio to parent is 0.106.

As for chain 5 I3M, the ratio to parent is 0.125.

Consider chain 5 I3Y, for which the ratio to parent was 0.517.

On to chain 5 I3T, for which the ratio to parent is 0.204.

For chain 5 I3W, the ratio to parent came to 0.358.

For the variant chain 5 I3G, the ratio to parent was found to be 0.0625.

Take chain 5 I3H: the ratio to parent worked out at 0.0214.

For chain 5 I3P, the ratio to parent was determined as 0.083.

With chain 5 I3N, the ratio to parent came out at 0.188.

A further assay covers variants of B2. Description: % of reporter cells activated (NFAT-GFP), raw.
Take chain 5 E6M: the ratio to parent came to 0.0743.

As to chain 5 S1M, the ratio to parent was 0.908.

Regarding chain 5 N4S, the ratio to parent was 0.0271.

Take chain 5 N4G: the ratio to parent is 0.00642.

For the variant chain 5 N4W, the ratio to parent is 0.00775.

As to chain 5 F5Q, the ratio to parent is 0.455.

Turning to chain 5 F5I, the ratio to parent worked out at 0.388.

For the variant chain 5 F5S, the ratio to parent was 0.867.

For the variant chain 5 L8Y, the ratio to parent was determined as 0.902.

With chain 5 L8N, the ratio to parent came out at 0.594.

On to chain 5 I2T, for which the ratio to parent amounted to 1.34.

In the case of chain 5 K7E, the ratio to parent came out at 0.013.
